The target in experiment [1] is T1, human follicle-stimulating hormone receptor (FSHR) (human, UniProt P23945 18-695).
T1 construct: whole, on cells; also called huFSHR; hFSHR
T1 sequence (looked up): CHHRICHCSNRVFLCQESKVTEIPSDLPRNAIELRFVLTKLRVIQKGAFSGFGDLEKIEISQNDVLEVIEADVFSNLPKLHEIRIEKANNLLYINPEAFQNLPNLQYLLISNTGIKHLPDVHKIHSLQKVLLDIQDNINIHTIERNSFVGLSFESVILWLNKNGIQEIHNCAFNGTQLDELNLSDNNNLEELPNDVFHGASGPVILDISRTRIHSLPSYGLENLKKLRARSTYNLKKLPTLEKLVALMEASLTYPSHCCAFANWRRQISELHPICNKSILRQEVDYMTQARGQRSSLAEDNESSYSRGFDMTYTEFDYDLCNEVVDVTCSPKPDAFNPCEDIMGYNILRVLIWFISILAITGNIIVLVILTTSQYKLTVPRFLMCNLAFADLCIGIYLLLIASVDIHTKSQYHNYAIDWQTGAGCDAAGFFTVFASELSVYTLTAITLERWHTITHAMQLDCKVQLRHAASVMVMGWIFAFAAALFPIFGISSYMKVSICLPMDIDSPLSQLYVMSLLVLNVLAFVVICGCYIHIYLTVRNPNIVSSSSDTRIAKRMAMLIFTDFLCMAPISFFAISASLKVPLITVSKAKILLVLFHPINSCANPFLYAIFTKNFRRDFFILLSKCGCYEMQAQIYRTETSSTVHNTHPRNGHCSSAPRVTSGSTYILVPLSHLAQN
The experiment in a line: immunofluorescence microscopy on fixed FSHR-L-cells. The procedure: FSHR-L-cells and wild type L-cells were cultured at 37° C. on LabTeck 8-wells (10,000 cells/well) in DMEM containing 10% horse serum, 1 mM glutamine, 1 mM pyruvate in presence of 5% CO₂. When reached 70% confluence, the cells were washed with PBS (three times) and fixed with 4% paraformaldehyde in PBS (15 min at room temperature (RT)). The free aldehyde groups were quenched with 100 mM NH₄Cl in PBS for 15 min at RT (i.e. 20° C.). To block the nonspecific binding of antibodies the cells were incubated 1 hour at RT (i.e. 20° C.) with PBS (pH=7.4) containing 2% goat serum (blocking buffer). FSHR was detected by incubating cells with serial dilutions of the monoclonal primary antibodies 1, 2, 3, 4, and 5 (3 μg/ml−1 μg/ml—0.3 μg/ml−0.1 μg/ml, 0.03 μg/ml, and 0.01 μg/ml of blocking buffer) overnight at 4° C. and with goat anti-mouse IgG-Alexa 555 (Invitrogen #A21137; dilution 1:1000 in blocking buffer) for 1 hour at room temperature. The known FSHR323 antibody (INSERM-Transfert, Paris) was used as a positive IgG2a control (3 μg/ml) as previously described in Radu et al. 2010 [9]. The cell nuclei were detected by incubating cells for 10 min with DAPI (SIGMA-ALDRICH®#32670; dilution 1:1000 in PBS). The slides were mounted in Dako fluorescent mounting medium containing 15 mM sodium azide and examined with an Olympus microscope.

The target of experiment [2] is T1, human follicle-stimulating hormone …. The experiment in a line: FACS on huFSHR L-cells, 4-fold serial dilutions, goat anti-mouse IgG-APC detection. The procedure:
(§1) In order to characterize and to check whether the IgGs anti human FSHR retain specificity for huFSHR and whether they bind to this receptor with higher affinity than known antibody, a binding FACS experiment using different IgGs (MABs) concentrations and huFSHR-L-cell and WT L-cells was performed. These cells were QCed for huFSHR expression.
(§2) The HuFSHR L-cells were prepared as previously described [Vannier et al 1996 [15]. Briefly, mouse L cells were co-transfected, using the calcium phosphate precipitate method, with the plasmid encoding the hFSHR (pSG5-hFSHR) and with the plasmid pSV-Neo, a vector which confers resistance to the antibiotic G 418. Neomycin-resistant cells were selected in DMEM supplemented with 10% fetal calf serum and G 418 (geneticin, SIGMA-ALDRICH®) (1 mg/mL). […] The transfected cells were maintained in medium containing G 418 (200 ig/mL) for further studies. The samples were 4-fold serial dilution of monoclonal antibodies and buffer: FACS buffer (1×PBS containing 0.4 g/l human albumin, pH 7.4).
(§3) 100 μl/well of goat anti-mouse IgG conjugated to APC (GAM-APC) (BD™ Bioscience, 1:500 dilution) was added to the cells and incubated for 30 min at 4° C., gently shaking

Experiment [3] has the same target. The experiment in a line: FACS on huFSHR L-cells; this end is tied to antibody 1 by Table 2 (1.582/0.2112). The procedure: as §1, §2, §3
For experiment [4] the target is unchanged. The experiment in a line: FACS on huFSHR L-cells; this end is tied to antibody 2 by Table 2 (1.582/0.08678). How it is done: as §1, §2, §3
Experiment [5] has the same target. The experiment in a line: peroxidase immunohistochemistry on paraffin sections of human testis; this end is tied to antibody 4 by the example in the sentence (0.2 against 5 µg/ml). The procedure:
Immunohistochemistry: Serial 3-μm-thick sections of human testis tissue (n=30 sections) were cut, attached to SuperFrost slides, deparaffinized with xylene, […] gradually in ethanol and washed with running tap water for 60 min. Access to tissue antigen sites for antibody attachment was enhanced by incubating slides at 90° C. for 40 min with 10 mM citrate buffer, pH 6. After cooling at room temperature (RT) for 20 min, and after each subsequent step, slides were rinsed with PBS. To block endogenous peroxidase activity, the sections were incubated with 6% hydrogen peroxide (15 min at RT, i.e. 20° C.). Sodium borohydride (10 mg/ml PBS) was used to quench free aldehyde groups (15 min, RT i.e. 20° C.). Non-specific binding of antibodies was blocked by incubating slides with 2% goat serum in Phosphate Buffer Saline (PBS) (blocking buffer) at 20° C. (RT) for 2 h. The slides were incubated with serial dilutions of the monoclonal primary antibodies 4, 2, 3 (5 μg/ml−1 μg/ml−0.2 μg/ml−0.04 μg/ml of blocking buffer) in blocking buffer overnight at 4° C. The known FSHR323 antibody (INSERM-Transfert, Paris) was used as a positive IgG2a control. […] The biotinylated goat anti-mouse IgG (Fc-specific) antibody (dilution 1:200), used as secondary antibody, was detected by using streptavidin coupled to horseradish peroxidase (dilution 1:500). […]

Substitutions are numbered along the chain they refer to.

B1: mouse IgG2a anti human FSHR antibody 3 (VH CDR1 of SEQ ID NO 3, VH CDR2 of SEQ ID NO 8) (antibody, V domains shown)
VH: QVQLQQSGAELMKPGASVKISCKATGYTFSKQWLLWVKQRPGHGLEWIGEIFPRNGNTNYNEKFKGKATFTADTSSSTAYMQLSSLTSEDSAVYYCARGPTASGYAMDYWGQGTSVTVSS
VL: DVLMTQTPLSLPVSLGDQASISCRSSQSIVHRNGNTYLEWYLQKPGQSPKLLIYKVSNRFSGVPDRFSGSGSGTDFTLKIIRVEAEDLGVYYCFQGSHVPFTFGSGTKLEIK
notes: Mouse IgG2a heavy constant domains and mouse C kappa; also called sample 3; mouse IgG2 FSHR323 variant
What is called EC50 is the concentration that produces a half-maximal response. A low value points to higher potency in that assay. Take B1: the “fold lower labelling concentration than the optimal concentration of FSHR323” value in experiment [1] was determined as 33 fold. The same molecule had an EC50 in experiment [2] of 0.0893 nM.

B2: mouse IgG2a anti human FSHR antibody 1 (VH CDR1 of SEQ ID NO 1, VH CDR2 of SEQ ID NO 6) (antibody, V domains shown)
VH: B1 VH with K31Q, Q32F, W33Y, L34V, L35G, N55T
VL: B1 VL
notes: VH was cloned in frame with mouse IgG2a heavy constant domains and the V kappa with mouse C kappa; also called sample 1; mouse IgG2 FSHR323 variant
As for B2, the “fold lower labelling concentration than the optimal concentration of FSHR323” value in experiment [1] is 33 fold. Moreover, the EC50 in experiment [2] amounted to 0.211 nM. In addition, the “fold improvement of EC50 against the known antibody” value in experiment [3] was 7.5 fold.

B3: mouse IgG2a anti human FSHR antibody 2 (VH CDR1 of SEQ ID NO 2, VH CDR2 of SEQ ID NO 7) (antibody, V domains shown)
VH: B1 VH with K31R, L34V, L35I, F52L
VL: B1 VL
notes: Mouse IgG2a heavy constant domains and mouse C kappa; also called sample 2; mouse IgG2 FSHR323 variant
Turning to B3, the “fold lower labelling concentration than the optimal concentration of FSHR323” value in experiment [1] is 33 fold. Further, the “fold improvement of EC50 against the known antibody” value in experiment [4] came out at 18.2 fold. Also, the response in experiment [2] was half-maximal at 0.0868 nM (EC50).

B4: mouse IgG2a anti human FSHR antibody 4 (VH CDR1 of SEQ ID NO 4, VH CDR2 of SEQ ID NO 9) (antibody, V domains shown)
VH: B1 VH with K31R, Q32S, L34I, F52Y, R54Q, G56Q
VL: B1 VL
notes: Mouse IgG2a heavy constant domains and mouse C kappa; also called sample 4; mouse IgG2 FSHR323 variant
On to B4, for which the “fold lower labelling concentration than the optimal concentration of FSHR323” value in experiment [1] was found to be 33 fold. For the same molecule, in experiment [5], the “fold higher affinity than FSHR323 (by optimal IHC dilution)” value amounted to 25 fold. The molecule further displayed an EC50 in experiment [2] of 0.098 nM.

B5: mouse IgG2a anti human FSHR antibody 5 (VH CDR1 of SEQ ID NO 5, VH CDR2 of SEQ ID NO 10) (antibody, V domains shown)
VH: B1 VH with Q32Y, L34T, L35Q, F52Y
VL: B1 VL
notes: Mouse IgG2a heavy constant domains and mouse C kappa; also called sample 5; mouse IgG2 FSHR323 variant
With B5, the “fold lower labelling concentration than the optimal concentration of FSHR323” value in experiment [1] turned out to be 33 fold. Moreover, a half-maximal response in experiment [2] (EC50) required 0.101 nM.

The record behind these values is patent US20210130481A1 (INSERM INSTITUT NATIONAL DE LA SANTE ET DE LA RECHERCHE …, published 2021).
